According to patent US20210032365A1 (Chugai, published 2021):
Positions count from the first letter of the chain named. Numbers in names are those of the source. Like-named read-outs stand apart in the source and are kept apart here. Each block holds one binder with its values, some of them ahead of it.

Legend:
[1] = molecular target: T1, Serum-derived human C1s (human, UniProt P09871 16-688); experiment: SPR Biacore T200, 37 C, antibody captured on protein A/G, pH 7.4, 1.2 mM CaCl2
T1 construct: The analyte was C1s purified from serum; also called hC1s
T1 sequence: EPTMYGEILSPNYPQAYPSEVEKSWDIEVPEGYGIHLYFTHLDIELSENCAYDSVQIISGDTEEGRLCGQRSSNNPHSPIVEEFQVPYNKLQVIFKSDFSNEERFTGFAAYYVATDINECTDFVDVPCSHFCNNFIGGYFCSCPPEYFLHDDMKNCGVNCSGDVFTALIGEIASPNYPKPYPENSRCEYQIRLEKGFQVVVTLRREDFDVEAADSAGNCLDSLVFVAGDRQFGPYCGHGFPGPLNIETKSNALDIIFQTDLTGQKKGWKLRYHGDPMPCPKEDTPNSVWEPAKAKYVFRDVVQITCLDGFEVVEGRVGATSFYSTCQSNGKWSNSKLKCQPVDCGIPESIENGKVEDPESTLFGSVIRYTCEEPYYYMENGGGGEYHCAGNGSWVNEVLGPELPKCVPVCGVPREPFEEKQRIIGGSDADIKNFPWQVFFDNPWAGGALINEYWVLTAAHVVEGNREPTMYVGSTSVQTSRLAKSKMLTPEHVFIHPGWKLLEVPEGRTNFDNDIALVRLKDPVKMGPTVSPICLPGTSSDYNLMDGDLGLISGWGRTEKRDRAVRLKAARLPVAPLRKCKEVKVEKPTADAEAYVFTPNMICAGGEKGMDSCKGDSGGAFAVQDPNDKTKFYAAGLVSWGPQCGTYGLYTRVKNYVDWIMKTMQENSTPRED
Procedure: (§1) The binding affinity of all histidine-substituted variants at pH 7.4 and pH 5.8 were determined at 37 degrees C. using Biacore T200 instrument (GE Healthcare). Recombinant Protein A/G (Pierce) was immobilized onto all flow cells of a CM4 sensor chip using amine coupling kit (GE Healthcare). Antibodies and analytes were prepared in 7(+) buffer (20 mM ACES, 150 mM NaCl, 1.2 mM CaCl2, 0.05% Tween 20, 0.005% NaN3, pH 7.4) or 5(+) buffer (20 mM ACES, 150 mM NaCl, 1.2 mM CaCl2), 0.05% Tween 20, 0.005% NaN3, pH 5.8). Each antibody was captured onto the sensor surface by protein A/G. Antibody capture levels were aimed at 200 resonance unit (RU). […] Sensor surface was regenerated each cycle with 10 mM Glycine-HCl pH 1.5. […] An additional dissociation phase at pH 5.8 was integrated immediately after the dissociation phase at pH 7.4. This dissociation rate in 5(+) buffer was determined by processing and fitting data using Scrubber 2.0 (BioLogic Software) curve fitting software.

[2] = molecular target: T1, Serum-derived human C1s; experiment: SPR Biacore T200, 37 C, antibody captured on protein A/G, pH 5.8, 1.2 mM CaCl2; marked *: not accurately determined, low binding response
Procedure: as §1

[3] = molecular target: T1, Serum-derived human C1s; experiment: SPR Biacore T200, 37 C, ratio of dissociation rates pH 5.8 / pH 7.4, 1.2 mM CaCl2
Procedure: as §1

[4] = molecular target: T1, Serum-derived human C1s; experiment: as above; remark: listed apart in the source
Procedure: (§2) The binding affinity of all histidine-substituted variants at pH 7.4 and pH 5.8 were determined at 37 degrees C. using Biacore T200 instrument (GE Healthcare). Recombinant Protein A/G (Pierce) was immobilized onto all flow cells of a CM4 sensor chip using amine coupling kit (GE Healthcare). Antibodies and analytes were prepared in 7(+) buffer (20 mM ACES, 150 mM NaCl, 1.2 mM CaCl2), 0.05% Tween 20, 0.005% NaN3, pH 7.4) or 5(+) buffer (20 mM ACES, 150 mM NaCl, 1.2 mM CaCl2, 0.05% Tween 20, 0.005% NaN3, pH 5.8). Each antibody was captured onto the sensor surface by protein A/G. Antibody capture levels were aimed at 200 resonance unit (RU). Serum-derived human C1s was injected at 50 nM, followed by dissociation. Sensor surface was regenerated each cycle with 10 mM Glycine-HCl pH 1.5. […] An additional dissociation phase at pH 5.8 was integrated immediately after the dissociation phase at pH 7.4. This dissociation rate in 5(+) buffer was determined by processing and fitting data using Scrubber 2.0 (BioLogic Software) curve fitting software (Table 9).

[5] = molecular target: T1, Serum-derived human C1s; experiment: SPR Biacore T200, 37 C, antibody captured on protein A/G, C1s at 50 nM, pH 7.4, 1.2 mM CaCl2
Procedure: as §2

[6] = molecular target: T1, Serum-derived human C1s; experiment: SPR Biacore T200, 37 C, added dissociation phase at pH 5.8 (1.2 mM CaCl2) straight after that at pH 7.4
Procedure: as §2

[7] = molecular target: T2, human C1s (human, UniProt P09871 16-688); experiment: SPR; KD at pH 5.8 over KD at pH 7.4, both 1.2 mM Ca
T2 construct: Analyte in the Biacore assays; also called hC1s; serum-derived human C1s (CompTech)
T2 sequence: T1 sequence
Procedure: as §1, with “software. […]” for “software.”

[8] = molecular target: T2, human C1s; experiment: SPR; koff (5.8+ of 775+): extra dissociation phase at pH 5.8 (1.2 mM Ca) right after the pH 7.4 dissociation, Scrubber fit
Procedure: as §1

[9] = molecular target: T2, human C1s; experiment: SPR (Biacore T200, 37C), Ab captured on protein A/G, serum C1s 200 and 800 nM; pH 5.8, 1.2 mM Ca
Procedure: as §1

[10] = molecular target: T2, human C1s; experiment: SPR (Biacore T200, 37C), Ab captured on protein A/G, serum C1s 12.5 and 50 nM; pH 7.4, 1.2 mM Ca
Procedure: as §1

[11] = molecular target: T2, human C1s; experiment: SPR (Biacore T200, 37C), Ab captured on protein A/G, serum C1s 50 and 200 nM; pH 5.8, 1.2 mM Ca
Procedure: as §1

[12] = molecular target: T2, human C1s; experiment: SPR (Biacore T200, 37C), Ab captured on protein A/G, serum C1s 200 and 800 nM; pH 5.8, 1.2 mM Ca; value marked 'Not Adopted due to low binding response at pH 5.8'
Procedure: as §1

Kd [1]: 1.43 nM
kon [1]: 574000 M⁻¹ s⁻¹
Kd [2]: 8530 nM
koff [2]: 0.0237 s⁻¹
kon [2]: 2780 M⁻¹ s⁻¹
koff (5.8+ of 775+)/koff (7.4+) [3]: 16.3
B1: IPN92H0286/IPN93L0205-SG136 (antibody, human IgG1, kappa, name in Kabat numbering)
heavy: EVMLVESGGGLVKPGGSLRLSCAASGFTFSNKAMSWVRQAPGKGLEWVATISSGGSHTYYLDSVKHRFTISRDNSKDTLYLQMNSLRAEDTALYYCARLFTGHAMDYWGQGTLVTVSSASTKGPSVFPLAPSSKSTSGGTAALGCLVKDYFPEPVTVSWNSGALTSGVHTFPAVLQSSGLYSLSSVVTVPSSSLGTQTYICNVNHKPSNTKVDKKVEPKSCDKTHTCPPCPAPELRRGPSVFLFPPKPKDTLMISRTPEVTCVVVDVSHEDPEVKFNWYVDGVEVHNAKTKPREEQYNSTYRVVSVLTVLHQDWLNGKEYKCKVSNKGLPSSIEKTISKAKGQPREPQVYTLPPSREEMTKNQVSLTCLVKGFYPSDIAVEWESNGQPENNYKTTPPVLDSDGSFFLYSKLTVDKSRWQQGNVFSCSVMHEALHNHYTQKSLSLSP
light: QIVLTQSPATLSLSPGERATLSCTASSSVSSSRLHWYQQKPGKAPKLWIYSTSNLASGVPSRFSGSGSGTDYTLTISSLQPEDFATYYCHQYHRHPPITFGQGTKLEIKRTVAAPSVFIFPPSDEQLKSGTASVVCLLNNFYPREAKVQWKVDNALQSGNSQESVTEQDSKDCTYSLSSTLTLSKADYEKHKVYACEVTHQGLSSPVTKSFNRGEC
notes: Substitutions are numbered by Kabat

koff (5.8+ of 775+)/koff (7.4+) [4]: 0.4
koff [5]: 0.00037 s⁻¹
kon [5]: 298000 M⁻¹ s⁻¹
koff [6]: 0.000148 s⁻¹
B2: C1_IPN009VH2-SG4GK/IPN009VK3-SK1 (antibody, human IgG4 S228P, kappa)
heavy: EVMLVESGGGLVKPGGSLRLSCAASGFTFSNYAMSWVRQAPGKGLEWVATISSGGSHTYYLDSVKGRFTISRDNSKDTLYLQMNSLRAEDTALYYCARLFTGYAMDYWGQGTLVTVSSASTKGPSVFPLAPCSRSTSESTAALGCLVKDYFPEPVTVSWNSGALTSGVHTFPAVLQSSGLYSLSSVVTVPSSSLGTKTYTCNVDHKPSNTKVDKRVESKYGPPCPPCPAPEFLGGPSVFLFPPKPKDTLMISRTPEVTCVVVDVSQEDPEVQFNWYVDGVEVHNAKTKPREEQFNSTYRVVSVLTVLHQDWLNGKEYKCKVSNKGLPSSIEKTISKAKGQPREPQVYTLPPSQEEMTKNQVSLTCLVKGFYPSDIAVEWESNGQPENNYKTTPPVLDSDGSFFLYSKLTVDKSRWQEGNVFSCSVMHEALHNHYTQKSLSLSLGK
light: B1 light with R33Y, H93Y, H95L, C173S
notes: also called IPN009VH2/IPN009VK3; IPN09VH2/IPN09VK3

KD (5.8+)/KD (7.4+) [7]: 60.9
koff [8]: 0.0247 s⁻¹
Kd [9]: 123 nM
koff [9]: 0.0267 s⁻¹
kon [9]: 217000 M⁻¹ s⁻¹
Kd [10]: 2.02 nM
koff [10]: 0.000645 s⁻¹
B3: IPN92H0281/IPN93L0024-SG136 (antibody, human IgG1, kappa, name in Kabat numbering)
heavy: B1 heavy with K32Y, H57K, Y60E, K65D, H66E, G102K
light: B1 light with R33Y, H93Y, H95L, P96H
notes: also called IPN92H0281/IPN93L0024 (lot PPU2047); IPN92H281/IPN93L0024-SG136

koff (5.8+ of 775+)/koff (7.4+) [4]: 0.57
koff [5]: 0.00192 s⁻¹
kon [5]: 183000 M⁻¹ s⁻¹
koff [6]: 0.00109 s⁻¹
B4: C1_IPN92H0012-SG4GK/IPN009VK3-SK1 (antibody, V domains shown)
VH: EVMLVESGGGLVKPGGSLRLSCAASGFTFSNYAMSWVRQAPGKGLEWVATHSSGGSHTYYLDSVKGRFTISRDNSKDTLYLQMNSLRAEDTALYYCARLFTGYAMDYWGQGTLVTVSS
VL: QIVLTQSPATLSLSPGERATLSCTASSSVSSSYLHWYQQKPGKAPKLWIYSTSNLASGVPSRFSGSGSGTDYTLTISSLQPEDFATYYCHQYYRLPPITFGQGTKLEIKR
notes: Single histidine variant of the VH IPN009VH2, with SG4GK and SK1 constant regions

KD (5.8+)/KD (7.4+) [7]: 0.9
Kd [11]: 2.48 nM
koff [8]: 0.000691 s⁻¹
Kd [10]: 2.77 nM
koff [10]: 0.000628 s⁻¹
B5: IPN009VH2/IPN93L0023-SG136 (antibody, human IgG1, kappa, name in Kabat numbering)
heavy: B1 heavy with K32Y, H66G, H103Y
light: B1 light with R33Y, H93Y
notes: also called IPN009VH2/IPN93L0023 (lot PPU2043)

KD (5.8+)/KD (7.4+) [7]: 8.9
Kd [11]: 10.7 nM
koff [8]: 0.00354 s⁻¹
Kd [10]: 1.2 nM
koff [10]: 0.000461 s⁻¹
B6: IPN92H0038/IPN93L0024-SG136 (antibody, human IgG1, kappa, name in Kabat numbering)
heavy: B1 heavy with K32Y
light: B1 light with R33Y, H93Y, H95L, P96H
notes: also called IPN92H0038/IPN93L0024 (lot PPU2045)

koff (5.8+ of 775+)/koff (7.4+) [4]: 0.77
Kd [5]: 4.28 nM
koff [5]: 0.0015 s⁻¹
kon [5]: 350000 M⁻¹ s⁻¹
koff [6]: 0.00115 s⁻¹
B7: C1_IPN009VH2-SG4GK/IPN93L0026-SK1 (antibody, V domains shown)
VH: B4 VH with H51I
VL: B4 VL with I98H
notes: It is read here as I96H (Kabat) in the VL IPN009VK3

Kd [12]: 8530 nM
koff [12]: 0.0237 s⁻¹
koff [8]: 0.0134 s⁻¹
Kd [10]: 1.43 nM
koff [10]: 0.000822 s⁻¹
B8: IPN92H0286/IPN93L0205-SG136 (antibody, human IgG1, kappa, name in Kabat numbering)
heavy: B1 heavy
light: B1 light
notes: also called IPN92H0286/IPN93L0205 (lot PPU2048); IPN92H0286/IPN93L205-SG136
